From patent publication US20130302399A1 (ALDERBIO, published 2013)

The binders below were run against T1, human Proprotein Convertase Subtilisin-like/Kexin type 9 (human, UniProt Q8NBP7 31-692, limits assumed) (assay: BLI (Octet QK), biotinylated antibody on streptavidin sensors, human PCSK9 in solution, 1:1 fit).
T1 construct: Biotinylated in the ELISAs; unlabelled analyte in BLI and SPR; also called human PCSK9; PCSK9
Procedure: Binding affinities of monoclonal antibodies for PCSK9 were estimated using Bio-Layer Interferometry (BLI) on the Octet QK (ForteBio). Biotinylated antibody was immobilized at different densities to the surface of Streptavidin (SA) Biosensors. A dilution series of human PCSK9 prepared in 1× Kinetics Buffer (NaCl 0.0138 M; KCl 0.00027 M; 0.1 mg/mL BSA, 0.002% Tween and 0.005% Sodium Azide; pH 7.4, at 25° C.) purchased from the manufacturer (ForteBio) was used to query the antibodies. At our chosen concentrations of antigen (˜0.25 μg/mL-2 μg/mL) association times of 15 minutes and dissociation times of 25 minutes were used with the Octet Analysis Software (v6.4, ForteBio), to globally fit data using a 1:1 Langmuir binding model.

T1 sequence (Q8NBP7 31-692 limits assumed): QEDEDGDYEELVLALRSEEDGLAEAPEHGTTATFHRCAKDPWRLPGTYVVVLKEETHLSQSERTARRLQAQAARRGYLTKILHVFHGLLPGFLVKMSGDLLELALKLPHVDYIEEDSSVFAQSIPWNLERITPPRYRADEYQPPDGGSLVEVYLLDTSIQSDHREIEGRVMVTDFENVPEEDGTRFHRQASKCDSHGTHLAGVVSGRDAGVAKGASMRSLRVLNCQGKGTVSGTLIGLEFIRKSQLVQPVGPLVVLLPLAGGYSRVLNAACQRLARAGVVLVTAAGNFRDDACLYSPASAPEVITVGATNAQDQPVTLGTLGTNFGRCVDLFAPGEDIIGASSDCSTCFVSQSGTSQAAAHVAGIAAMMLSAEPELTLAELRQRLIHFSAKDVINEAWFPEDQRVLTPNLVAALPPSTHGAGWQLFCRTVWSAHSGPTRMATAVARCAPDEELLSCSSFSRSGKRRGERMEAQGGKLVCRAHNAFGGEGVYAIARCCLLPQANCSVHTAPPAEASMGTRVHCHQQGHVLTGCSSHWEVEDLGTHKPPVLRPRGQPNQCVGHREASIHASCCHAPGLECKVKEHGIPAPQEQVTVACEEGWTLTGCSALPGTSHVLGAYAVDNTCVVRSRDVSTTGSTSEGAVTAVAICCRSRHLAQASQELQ

Binder | Kd [nM] | koff [s⁻¹] | kon [M⁻¹ s⁻¹]
Ab1 (antibody, human IgG1, kappa, N297A, V domains shown, also called antibody Ab1) VH: QSVEESGGRLVTPGTPLTLTCTVSGFSLSSYWMTWVRQAPGKGLEYIGIISSSGSTYYATWAKGRFTISKTSSTTVDLEITSPTTEDTATYFCARDSAFSSGLEFNIWGPGTLVTVSS VL: AYDLTQTPASVEVAVGGTVTIKCQASQSVYSNWLSWYQQKPGQPPKLLIYDASDLASGVPSRFKGSGSGTQFTLTISGVQCDDAATYYCQQGQSSSDIDNTFGGGTEVVVKR | 7.99 | 0.0013 | 162000
Ab4 (antibody, human IgG1, kappa, N297A, V domains shown, also called antibody Ab4) VH: QSVEESGGRLVTPGTPLTLTCTVSGIDLSSYAMIWVRQAPEKGLEYIGYIGGIDSTYYASWAKGRFTISKTSTTVDLKMTSPTTEDTATYFCGRWSGTSGYNTIWGPGTLVTVSS VL: DVVMTQTPASVEAAVGGTVTIKCQASQSIYSNLAWYQQKPGQPPKLLIYGASNLASGVSSRFKGSRSGTEYTLTISDLECADAATYYCQCTGGGDSGNTFGGGTEVVVKR | 6 | 0.000422 | 70300
Ab5 (antibody, human IgG1, kappa, N297A, V domains shown, also called antibody Ab5) VH: QSVEESGGRLVTPGTPLTLTCTVSGFSLSSYAMSWVRQAPGKGLEWIGIISNSGTTYYASWAKGRFTISKTSTTVDLKITSPTTEDTATYFCARGIYWYWRVFNLWGPGTLVTVSS VL: AVLTQTPSPVSAAVGGTVTINCQASQSVYNNLLSWYQQKPGQPPKLLIYDASNLASGVPDRFSGSGSGTQFTLTISGVQCDDAATYYCLGGYDDDADNAFGGGTEVVVKR | 3.16 | 0.000278 | 88100
Ab6 (antibody, human IgG1, kappa, N297A, V domains shown, also called antibody Ab6) VH: QEQLEESGGDLVKPEGSLTLTCTASGFSFSSNYWICWVRQAPGKGLEWIGCIRDGGGTYYASWAKGRLTISMTSSTTVTLQLNSLTAADTATYFCASDINDGWLGQFNLWGPGTLVTVSS VL: DIVMTQTPASVEVAVGGTVTIKCQASQSISAYLAWYQQKPGQPPKLLIYRAYTLASGVPSRFKGSGSGTQFTLTISDLECADAATYYCQSYYSVTTNTYGNTFGGGTEVVVKR | 0.531 | 4e-05 | 75300
Ab7 (antibody, human IgG1, kappa, N297A, also called antibody Ab7) heavy: not shown light: ADIVMTQSPSSLSASVGDRVTIKCQASQSISAYLAWYQQKPGKVPKLLIYRAYTLASGVPSRFSGSGSGTDFTLTISSLQPEDVATYYCQSYYSVTTNTYGNTFGGGTKVEIKRTVAAPSVFIFPPSDEQLKSGTASVVCLLNNFYPREAKVQWKVDNALQSGNSQESVTEQDSKDSTYSLSSTLTLSKADYEKHKVYACEVTHQGLSSPVTKSFNRGEC | 0.379 | 2.68e-05 | 70700
Ab8 (antibody, human IgG1, kappa, N297A, V domains shown, also called antibody Ab8) VH: QEQLVESGGGLVQPEGSLTLTCTASGFSFTSDYYMCWVRQAPGKGLEWIGCISTGDGSTYYASWAKGRFTISKPSSTTVTLQMTRLTAADTATYFCARDRYYSYAYGAYVYASDLWGPGTLVTVSS VL: DIVMTQTPASVSEPVGGTVTINCQASESIRNYLSWYQQKPGQRPKLLIYGASTLASGVPSRFKGSGSGTDFTLTISDLECADAATYYCQSNYGISSRSYVNGFGGGTEVVVKR | 0.637 | 4.91e-05 | 77000
Ab9 (antibody, human IgG1, kappa, N297A, V domains shown, also called antibody Ab9) VH: QSVEESGGRLVTPGTPLTLTCTVSGIDLSSYAMGWVRQAPGKGLEYIGIIVSYGPTYYASWAKGRFTISKTSTTVDLKITSPTAEDTATYFCARDLDANSSGYYGCFNIWGQGTLVTVSS VL: AVVLTQTPASVSAAVGGTVTIKCQASQSISTALAWYQQKPGQPPKLLIYAASPLASGVSSRFKSSGSGTEFTLTISDLECADAATYYCQSYYGSSNIAFGGGTELEILR | 0.637 | 4.91e-05 | 77000
Ab10 (antibody, human IgG1, kappa, N297A, V domains shown, also called antibody Ab10) VH: QEQLEESGGDLVKPEGSLTLTCTASGFSFSSSYWICWVRQAPGKGLEWIACIRAGGGNYYANWAKGRFTISRTSSTTVTLQMTSLTAADTATYFCASDINDGWLGQFNLWGPGTLVTVSS VL: NIVMTQTPASVEAAVGGTVTIKCQASQSISNYLAWYQQKPGQPPKLLIYRTSTLASGVPSRFKGSGSGTQFTLTISDLECADAATYYCQSYYSVTTVAYGNTFGGGTEVVVKR | 0.676 | 5.09e-05 | 75300
Ab2 (antibody, human IgG1, kappa, N297A, V domains shown, also called antibody Ab2) VH: QSVEESGGRLVTPGTPLTLTCTVSGFSLSSYAMSWVRQAPGKGLEWIGIIDAIDNTYYASWAKGRFTISKTSTTVDLKMTSLTTGDTATYFCARASILGYSIATGFNIWGPGTLVTVSS VL: AYDMTQTPASVEVAVGGTVTIKCQASQSISSHLAWYQQKSGQPPKLLIYRASTLESGVSSRFKGSGSGTEFTLTISDLECADAATYYCQQGYGVSDVDNGFGGGTEVVVKR | 4.25 | 0.000453 | 107000

The next lines start with the values.

Kd [nM] | koff [s⁻¹] | kon [M⁻¹ s⁻¹] | Binder
0.332 | 2.22e-05 | 66800 | Ab11 (antibody, human IgG1, kappa, N297A, also called antibody Ab11) heavy: not shown light: ANIVMTQSPSSLSASVGDRVTITCQASQSISNYLAWYQQKPGKVPKLLIYRTSTLASGVPSRFSGSGSGTDFTLTISSLQPEDVATYYCQSYYSVTTVAYGNTFGGGTKVEIKRTVAAPSVFIFPPSDEQLKSGTASVVCLLNNFYPREAKVQWKVDNALQSGNSQESVTEQDSKDSTYSLSSTLTLSKADYEKHKVYACEVTHQGLSSPVTKSFNRGEC
0.12 | 1.21e-05 | 100000 | Ab12 (antibody, human IgG1, kappa, N297A, also called antibody Ab12) heavy: not shown light: ANIVMTQSPSSLSASVGDRVTIKCQASQSISNYLAWYQQKPGKVPKLLIYRTSTLASGVPSRFSGSGSGTDFTLTISSLQPEDVATYYCQSYYSVTTVAYGNTFGGGTKVEIKRTVAAPSVFIFPPSDEQLKSGTASVVCLLNNFYPREAKVQWKVDNALQSGNSQESVTEQDSKDSTYSLSSTLTLSKADYEKHKVYACEVTHQGLSSPVTKSFNRGEC
0.215 | 2.09e-05 | 97000 | Ab18 (antibody, human IgG1, kappa, N297A, also called antibody Ab18) heavy: not shown light: ADIVMTQSPSSLSASVGDRVTIKCQASQSISAYLAWYQQKPGKVPKLLIYRAYTLASGVPSRFSGSGSGTDFTLTISSLQPEDVATYYCQSYYSVTTNTYGNTFGGGTKVEIKRTVAAPSVFIFPPSDEQLKSGTASVVCLLNNFYPREAKVQWKVDNALQSGNSQESVTEQDSKDSTYSLSSTLTLSKADYEKHKVYACEVTHQGLSSPVTKSFNRGEC
2.23 | 0.000353 | 159000 | Ab13 (antibody, human IgG1, kappa, N297A, V domains shown, also called antibody Ab13) VH: QSVEESGGRLVTPGTPLTLTCTVSGIDLSTYGVGWVRQAPGKGLEYIGIISSSGSTYYASWAKGRFTISKTSSTTVDLKMTSLTTEDTATYFCARDWSSTTGYYGYFNMWGPGTLVTVSS VL: AFELTQTPSPVSAAVGGTVTIKCQASQSISTALAWYQQKPGQPPKLLIYGASNLESGVPSRFSGSGSGTQFTLTISDLECADAAIYYCQSSYGSSTLAFGGGTEVVVKR
3.7 | 0.000362 | 97900 | Ab14 (antibody, human IgG1, kappa, N297A, V domains shown, also called antibody Ab14) VH: QEQLEESGGDLVKPEGSLTLTCTGSGFSFSSIAYMCWIRQAPGKGLEWIGCIGSGSGNTYYANWAKGRFTISKSSSTTVTLQMTSLTAADTATYFCASDTNNGWLGQFNLWGQGTLVTVSS VL: DIVMTQTPASVSAAVGGTVTINCQASQSISSYLAWYQQKPGQPPKLLIYRASTLASGVPSRFKGSGSGTQFTLTISDLECADAATYYCQGYYSVTTNTYGNTFGGGTEVVVKR
0.839 | 5.8e-05 | 69200 | Ab15 (antibody, human IgG1, kappa, N297A, V domains shown, also called antibody Ab15) VH: QEQLEESGGDLVKPEGSLTLTCTASGFSFSSSYWICWVRQAPGKGLEWIACIDAGNSGSTYYASWAKGRFTISKASSTTVTLQMTSLTAADTATYFCASDLNDGWLGQFNLWGPGTLVTVSS VL: NIVMTQTPSPVSGAVGGTVTIKCQASQSISDYLAWYQQKPGQPPKLLIYRASTLASGVPSRFRGSGSGTEYTLTITDLECADAATYYCQSYYSVTTNTYGNTFGGGTEVVVKR
1.28 | 9.92e-05 | 77500 | Ab16 (antibody, human IgG1, kappa, N297A, V domains shown, also called antibody Ab16) VH: QEQLVESGGGLVQPEGSLTLTCTASGFSFSSDYWICWVRQAPGKGLEWIGCIRDGGGSYYANWAKGRLTISMTSSTTVGLKMTSLTAADTATYFCASDINDGWLGQFNLWGPGTLVTVSS VL: DIVMTQTPASVEAAVGGTVTIKCQASQSISSYLAWYQQKPGQPPKLLIYRASTLASGVPSRFSGSGSGTEFTLTISDLECADAATYYCQSYYSVTTVTYGNTFGGGTEVVVKR
0.609 | 6.27e-05 | 103000 | Ab17 (antibody, human IgG1, kappa, N297A, V domains shown, also called antibody Ab17) VH: QEQLEESGGDLVKPEGSLTLTCTASGFSFSSSYWICWVRQAPGKGLEWIGCIRPGSADYYASWAKGRFTISRASSSTVTLQMTSLTAADTATYFCASDINDGWLGQFNLWGPGTLVTVSS VL: DVVMTQTPASVEAAVGGTVTIKCQASLSIADYLAWYLQKPGQPPKLLIYRASTLASGVPSRFKGSGSGTEYTLTISDLECADAATYYCQSYYSVTTNTYGNTFGGGTEVVVKR
1.3 | 0.000116 | 88000 | Ab19 (antibody, human IgG1, kappa, N297A, V domains shown, also called antibody Ab19) VH: EVQLVESGGGLVQPGGSLRLSCAASGIDLSSYAMGWVRQAPGKGLEYIGIIVSYGPTYYASWAKGRFTISRDNSKNTVYLQMNSLRAEDTATYFCARDLDAQSSGYYGAFNIWGQGTLVTVSS VL: DIQMTQSPSTLSASVGDRVTITCQASQSISTALAWYQQKPGKAPKLLIYAASPLASGVPSRFSGSGSGTEFTLTISSLQPDDFATYYCQSYYGSSNIAFGGGTKVEIKR
